Test results taken from patent US20190177366A1 (published 2019).
Ends that are not written are not given here.

What follows are binders tested against T1, proprotein convertase subtilisin/kexin type 9 (PCSK9) (human, UniProt Q8NBP7 31-152) (assay: phage spot ELISA).
T1 construct: domain: prodomain; Recombinant; tag not written as a part; also called rec.PCSK9; His-PCSK9
T1 sequence (Q8NBP7 31-152 limits assumed, chain 1 of 2): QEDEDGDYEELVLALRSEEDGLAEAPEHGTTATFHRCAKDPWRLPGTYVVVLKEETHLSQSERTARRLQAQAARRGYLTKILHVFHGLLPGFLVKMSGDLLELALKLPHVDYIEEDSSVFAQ
T1 sequence (Q8NBP7 153-692 limits assumed, chain 2 of 2): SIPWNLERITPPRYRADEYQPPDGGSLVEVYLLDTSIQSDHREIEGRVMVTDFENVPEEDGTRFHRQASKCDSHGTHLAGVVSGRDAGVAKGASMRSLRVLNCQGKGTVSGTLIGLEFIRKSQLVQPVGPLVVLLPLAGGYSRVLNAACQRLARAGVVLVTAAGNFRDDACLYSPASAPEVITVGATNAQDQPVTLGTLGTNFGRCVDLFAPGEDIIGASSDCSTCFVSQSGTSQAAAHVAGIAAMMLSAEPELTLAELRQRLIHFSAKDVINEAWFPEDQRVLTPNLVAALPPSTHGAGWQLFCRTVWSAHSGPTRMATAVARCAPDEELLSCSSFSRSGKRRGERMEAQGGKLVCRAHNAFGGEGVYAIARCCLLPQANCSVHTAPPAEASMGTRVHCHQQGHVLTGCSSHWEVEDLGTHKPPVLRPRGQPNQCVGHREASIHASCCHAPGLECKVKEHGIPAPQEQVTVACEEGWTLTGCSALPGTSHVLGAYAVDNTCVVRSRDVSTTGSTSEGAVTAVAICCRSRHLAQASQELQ
TAFTSWEEYLDWVGSGDCLRYRVGSSCS (not fully specified (bridges); cysteine pairing not given here, phage clone) [SEQ ID NO 360]: binds.
TAFTSWEEYLDWVGSGGCGYRYMCDMINGL (phage clone) [SEQ ID NO 358]: binds.
TAFTSWEEYLDWVGSGVCSDHYIGGKEVRC (phage clone) [SEQ ID NO 348]: binds.
TAFTSWEEYLDWVGSGKNNYAYLINMPRAPGI (phage clone) [SEQ ID NO 325]: binds.
TAFTSWEEYLDWVGSGKCDSHYIRGVVACH (phage clone) [SEQ ID NO 356]: binds.
TAFTSWEEYLDWVGSGVVLWNHSRIL (phage clone) [SEQ ID NO 313]: binds.
TAFTSWEEYLDWVGSGNMCYLRGKMDCNIV (phage clone) [SEQ ID NO 347]: binds.
TAFTSWEEYLDWVGSGRCESKGWANTCVSE (phage clone) [SEQ ID NO 362]: binds.
TAFTSWEEYLDWVGSGSETGLGTYYG (phage clone) [SEQ ID NO 350]: binds.
SGPRTYLRGLVD (phage clone without anchor) [SEQ ID NO 366]: binds.
TAFTSWEEYLDWVGSGEHQFYSYRGVDVYR (phage clone) [SEQ ID NO 324]: binds.
TAFTSWEEYLDWVGSGNVRCYRDVPSCS (not fully specified (bridges); cysteine pairing not given here, phage clone) [SEQ ID NO 329]: binds.
TAFTSWEEYLDWVGSGPTSGLTPS (phage clone) [SEQ ID NO 361]: binds.
TAFTSWEEYLDWVGSGPRTYLRGLVD (phage clone) [SEQ ID NO 340]: binds.
TAFTSWEEYLDWVGSGALWNMRRVESVAFR (phage clone) [SEQ ID NO 319]: binds.
TAFTSWEEYLDWVGSGACLNHFVSGNMIRC (phage clone) [SEQ ID NO 327]: binds.
TAFTSWEEYLDWVGSGEDVVCYGRVDYMPLCV (phage clone) [SEQ ID NO 330]: binds.
TAFTSWEEYLDWVGSGSPCRVGYTPC (not fully specified (bridges); cysteine pairing not given here, phage clone) [SEQ ID NO 351]: binds.
TAFTSWEEYLDWVGSGMPWNLARIER (phage clone) [SEQ ID NO 318]: binds.
TAFTSWEEYLDWVGSGCPFYDWRCSDFS (not fully specified (bridges); cysteine pairing not given here, phage clone) [SEQ ID NO 328]: binds.
TAFTSWEEYLDWVGSGCCSYGYEKCCNG [SEQ ID NO 349]: binds.
TAFTSWEEYLDWVGSGGDCGYHYMCSMT (not fully specified (bridges); cysteine pairing not given here, phage clone) [SEQ ID NO 345]: binds.
TAFTSWEEYLDWVGSGNELWNINRLRSS (phage clone) [SEQ ID NO 317]: binds.
TAFTSWEEYLDWVGSGCLDRSGGCYTREGYLS (phage clone) [SEQ ID NO 353]: binds.
TAFTSWEEYLDWVGSGNCWSSLRGICENLG (phage clone) [SEQ ID NO 307]: binds.
TAFTSWEEYLDWVGSGKLWNLTRISS (phage clone) [SEQ ID NO 312]: binds.
TAFTSWEEYLDWVGSGMVYVDRGVRVFT (phage clone) [SEQ ID NO 322]: binds.
TAFTSWEEYLDWVGSGKLWNLGRV (phage clone) [SEQ ID NO 306]: binds.
TAFTSWEEYLDWVGSGCYPLCRVG (phage clone) [SEQ ID NO 355]: binds.
TAFTSWEEYLDWVGSGCYPLCRVL (phage clone) [SEQ ID NO 364]: binds.
TAFTSWEEYLDWVGSGNCARLYSHQRDYSQVC (phage clone) [SEQ ID NO 352]: binds.
TAFTSWEEYLDWVGSGQTTYLRVSSS (phage clone) [SEQ ID NO 341]: binds.
TAFTSWEEYLDWVGSGRGGYELNIPR (phage clone) [SEQ ID NO 326]: binds.
TAFTSWEEYLDWVGSGQELPNHRRLS (phage clone) [SEQ ID NO 346]: binds.
TAFTSWEEYLDWVGSGGHPLWNLSRI (phage clone) [SEQ ID NO 316]: binds.
TAFTSWEEYLDWVGSGCWTYLRGGCSVT (not fully specified (bridges); cysteine pairing not given here, phage clone) [SEQ ID NO 339]: binds.
TAFTSWEEYLDWVGSGVLWNHSRI (phage clone) [SEQ ID NO 308]: binds.
TAFTSWEEYLDWVGSGSSTWHFVGGVRV (phage clone) [SEQ ID NO 354]: binds.
TAFTSWEEYLDWVGSGNPTYWLTRIS (phage clone) [SEQ ID NO 331]: binds.
TAFTSWEEYLDWVGSGCMEAWQCSLA (phage clone) [SEQ ID NO 337]: binds.
TAFTSWEEYLDWVGSGGDCYPHCRLV (not fully specified (bridges); cysteine pairing not given here, phage clone) [SEQ ID NO 359]: binds.
TAFTSWEEYLDWVGSGVPWNLARL (phage clone) [SEQ ID NO 314]: binds.
TAFTSWEEYLDWVGSGVPWNLAKI (phage clone) [SEQ ID NO 315]: binds.
TAFTSWEEYLDWVGSGQVTSLPQA (phage clone) [SEQ ID NO 363]: binds.
TAFTSWEEYLDWVGSGPHSYWLDRVQ (phage clone) [SEQ ID NO 332]: binds.
TAFTSWEEYLDWVGSGGEYLWNLKRLES (phage clone) [SEQ ID NO 320]: binds.
TAFTSWEEYLDWVGSGKMTHMKAD (phage clone) [SEQ ID NO 357]: binds.
TAFTSWEEYLDWVGSGPLLWNLQKVH (phage clone) [SEQ ID NO 310]: binds.
TAFTSWEEYLDWVGSGSYRGAWSVFGGSTD (phage clone) [SEQ ID NO 336]: binds.
TAFTSWEEYLDWVGSGCVKVGLSWIGDCNS (phage clone) [SEQ ID NO 334]: binds.
TAFTSWEEYLDWVGSGGREMRSVIQM (phage clone) [SEQ ID NO 344]: binds.
TAFTSWEEYLDWVGSGQCYPWCRL (phage clone) [SEQ ID NO 338]: binds.
TAFTSWEEYLDWVGSGSCSWNVERIRGCSV (phage clone) [SEQ ID NO 311]: binds.
TAFTSWEEYLDWVGSGGCVKYRGSVSCQESKT (phage clone) [SEQ ID NO 323]: binds.
TAFTSWEEYLDWVGSGRGEVYDKGGVIVHL (phage clone) [SEQ ID NO 343]: binds.
TAFTSWEEYLDWVGSGGPWNLNRV (phage clone) [SEQ ID NO 309]: binds.
TAFTSWEEYLDWVGSGTRYADRGVMVYSLS (phage clone) [SEQ ID NO 321]: binds.
